Consider 13 sequences from the Immune Epitope Database (IEDB).

Broadly, the Kd is the concentration at which binding is half-saturated. The term IC50 denotes the concentration that inhibits the measured activity by half. A lower IC50 goes with greater potency in that assay.

Assay [1] concerns the target HLA-A*03:01. The assay is described as follows: IEDB peptide-MHC binding, purified MHC/competitive/fluorescence; filed as Kd, often an IC50 or EC50 that approximates it; ≥ and ≤ were set here for values at or beyond the usual limits of such assays.
Assay [2] concerns the target HLA-B*15:01. Described as above.
For assay [3], the target named is HLA-B*57:01. Described as above.
A further assay deals with HLA-B*27:03. Described as above.
For assay [4], the target named is HLA-B*18:01. The description is as above.
Assay [5] deals with HLA-B*46:01. Described as above.
Another assay addresses HLA-B*39:01. The description is as above.
The target in assay [6] is HLA-A*02:01. The description is as above. The conditions noted are these: source organism: Cryptococcus neoformans var. neoformans B-3501A.
For the next assay, the target named is HLA-A*26:01. The assay is described as above.
For assay [7], the target named is HLA-A*11:01. The assay is described as follows: IEDB peptide-MHC binding, purified MHC/competitive/fluorescence; ≥ and ≤ were set here for values at or beyond the usual limits of such assays.
The target in another assay is HLA-B*15:17. Briefly: IEDB peptide-MHC binding, purified MHC/competitive/fluorescence; filed as Kd, often an IC50 or EC50 that approximates it; ≥ and ≤ were set here for values at or beyond the usual limits of such assays.
Assay [8] addresses HLA-A*03:01. The assay is described as follows: IEDB peptide-MHC binding, purified MHC/direct/fluorescence; filed as Kd, often an IC50 or EC50 that approximates it; ≥ and ≤ were set here for values at or beyond the usual limits of such assays.
For the next assay, the target named is HLA-A*29:02. The assay is described as above.
For assay [9], the target named is HLA-A*69:01. The assay is described as above.
The target of another assay is HLA-B*27:05. Described as above.
Assay [10] addresses HLA-B*15:01. The assay is described as above.
In the next assay the target is HLA-B*40:01. The description is as above.
A further assay has as its target HLA-B*58:01. The description is as above.
The target in assay [11] is HLA-B*57:01. The description is as above.
For assay [12], the target named is HLA-A*11:01. Described as above.
In the next assay the target is HLA-A*31:01. The description is as above.
A further assay deals with HLA-B*08:01. The description is as above.
Assay [13] addresses HLA-B*18:01. Described as above.
The target of another assay is HLA-A*01:01. Described as above.
Assay [14] has as its target HLA-B*46:01. The assay is described as above.
For another assay, the target named is HLA-B*44:02. Described as above.
For assay [15], the target named is HLA-A*02:01. Described as above.
Assay [16] has as its target HLA-A*69:01. Briefly: IEDB peptide-MHC binding, purified MHC/competitive/fluorescence; filed as Kd, often an IC50 or EC50 that approximates it; ≥ and ≤ were set here for values at or beyond the usual limits of such assays. Particulars: source organism: Homo sapiens.
The next assay concerns the target HLA-B*51:01. Described as above.
The next assay deals with HLA-B*48:01. The assay is described as follows: IEDB peptide-MHC binding, purified MHC/direct/fluorescence; filed as Kd, often an IC50 or EC50 that approximates it; ≥ and ≤ were set here for values at or beyond the usual limits of such assays.
Another assay has as its target HLA-A*68:02. Described as above. Particulars: source organism: Zaire ebolavirus.
The next assay has as its target HLA-A*02:19. The assay is described as above. Particulars: source organism: Zaire ebolavirus.
In a further assay the target is HLA-A*24:03. Described as above. Particulars: source organism: Zaire ebolavirus.
A further assay concerns the target HLA-A*02:12. The assay is described as above. The conditions noted are these: source organism: Zaire ebolavirus.
Where [17] appears, read: source organism: Cryptococcus neoformans var. neoformans B-3501A.
[18] abbreviates: source organism: Sudan ebolavirus.
Where [19] appears, read: source organism: Reston ebolavirus.
Where [20] appears, read: source organism: Reston ebolavirus - Reston.
Where [21] appears, read: source organism: Mycobacterium tuberculosis variant bovis BCG str. Pasteur 1173P2.
Where [22] appears, read: source organism: Zaire ebolavirus.
The mark [23] stands for this setting: source organism: Ebola virus - Gabon (1994-1997).

Bounds are passed on as bounds.

As for AIDDFCLFA, the Kd in the assay with HLA-A*03:01 [1] (setting [17]), with HLA-B*15:01 [2] (setting [17]), in the assay with HLA-B*57:01 [3] (setting [17]), in the assay with HLA-B*27:03 (setting [17]), with HLA-B*18:01 [4] (setting [17]) and in the assay with HLA-B*46:01 [5] (setting [17]) was at least 20 µM each time. Moreover, the figures for the Kd with HLA-B*39:01 (setting [17]), with HLA-A*02:01 [6] and with HLA-A*26:01 (setting [17]) were at least 20 µM, 0.0135 µM and at least 20 µM, respectively.

In the assay with HLA-A*11:01 [7] (setting [18]), EDDDAASSR came in with an IC50 of at least 70.9 µM.

FHRKKTDAL: the Kd with HLA-B*27:03 (setting [19]), in the assay with HLA-B*15:17 (setting [19]), with HLA-A*26:01 (setting [19]), with HLA-A*03:01 [8] (setting [20]), with HLA-A*29:02 (setting [20]) and with HLA-A*69:01 [9] (setting [20]) was at least 20 µM throughout. The Kd with HLA-B*27:05 (setting [20]), with HLA-B*15:01 [10] (setting [20]), with HLA-B*40:01 (setting [20]), with HLA-B*58:01 (setting [20]), in the assay with HLA-B*57:01 [11] (setting [20]) and with HLA-A*11:01 [12] (setting [20]) was at least 20 µM in each case. Also, the Kd is at least 20 µM with HLA-A*31:01 (setting [20]); 0.451 µM with HLA-B*08:01 (setting [20]); at least 20 µM in the assay with HLA-B*18:01 [13] (setting [20]); at least 20 µM with HLA-A*01:01 (setting [20]); at least 20 µM with HLA-B*46:01 [14] (setting [20]); at least 20 µM with HLA-B*44:02 (setting [20]). In the assay with HLA-A*02:01 [15] (setting [20]), this sequence displayed a Kd of at least 20 µM.

Turning to FLQQRKPPL, the Kd with HLA-A*69:01 [16], with HLA-B*15:01 [2] (source organism: Homo sapiens), with HLA-B*57:01 [3] (source organism: Homo sapiens), with HLA-B*27:03 (source organism: Homo sapiens), in the assay with HLA-B*18:01 [4] (source organism: Homo sapiens) and with HLA-B*46:01 [5] (source organism: Homo sapiens) was at least 20 µM each time. Moreover, the Kd is at least 20 µM with HLA-B*39:01 (source organism: Homo sapiens); at least 20 µM with HLA-B*15:17 (source organism: Homo sapiens); at least 20 µM in the assay with HLA-A*26:01 (source organism: Homo sapiens); at least 20 µM with HLA-B*51:01 (source organism: Homo sapiens); 0.432 µM in the assay with HLA-A*02:01 [15] (source organism: Mus musculus).

Take GEWAFWENK: the IC50 with HLA-A*11:01 [7] (setting [18]) amounted to 26.2 µM.

In the assay with HLA-A*03:01 [1] (source organism: Entamoeba histolytica HM-1:IMSS), GLFNYFFGK registered a Kd of 0.041 µM.

Take HPTSRRELL: the Kd with HLA-A*03:01 [8] (setting [21]), with HLA-A*29:02 (setting [21]), in the assay with HLA-B*27:05 (setting [21]), in the assay with HLA-B*15:01 [10] (setting [21]), with HLA-B*40:01 (setting [21]) and in the assay with HLA-B*58:01 (setting [21]) was at least 20 µM each time. For the same sequence, the Kd is at least 20 µM with HLA-B*57:01 [11] (setting [21]); at least 20 µM with HLA-A*11:01 [12] (setting [21]); at least 20 µM in the assay with HLA-A*31:01 (setting [21]); 8.77 µM in the assay with HLA-B*08:01 (setting [21]); at least 20 µM with HLA-B*18:01 [13] (setting [21]); at least 20 µM in the assay with HLA-A*01:01 (setting [21]). For the same sequence, the Kd with HLA-B*46:01 [14] (setting [21]), in the assay with HLA-B*44:02 (setting [21]) and in the assay with HLA-B*48:01 (setting [21]) was at least 20 µM in each case.

On to LLANILSEK, for which the Kd with HLA-A*03:01 [1] (source organism: Rickettsia sibirica 246) was determined as 0.0078 µM.

Take MQDVFTFYV: the Kd with HLA-B*15:01 [2] (source organism: Homo sapiens), in the assay with HLA-B*57:01 [3] (source organism: Homo sapiens), in the assay with HLA-B*27:03 (source organism: Homo sapiens), with HLA-B*18:01 [4] (source organism: Homo sapiens), in the assay with HLA-B*46:01 [5] (source organism: Homo sapiens) and with HLA-B*15:17 (source organism: Homo sapiens) was at least 20 µM each time. The Kd with HLA-A*26:01 (source organism: Homo sapiens) is at least 20 µM; with HLA-B*51:01 (source organism: Homo sapiens) it was at least 20 µM; with HLA-A*02:01 [15] (source organism: Homo sapiens) it was 0.0008 µM.

As for QAKKDFFSS, the IC50 in the assay with HLA-A*11:01 [7] (setting [22]) turned out to be 66.8 µM.

For the sequence QLSLKMLSL, the Kd with HLA-B*27:03 (setting [22]), in the assay with HLA-B*39:01 (setting [22]), with HLA-A*26:01 (setting [22]), in the assay with HLA-B*51:01 (setting [22]), with HLA-A*03:01 [8] (setting [23]) and with HLA-A*29:02 (setting [23]) was at least 20 µM throughout. Moreover, the Kd with HLA-A*69:01 [9] (setting [23]), in the assay with HLA-A*68:02, in the assay with HLA-B*27:05 (setting [23]), with HLA-A*02:19, with HLA-B*15:01 [10] (setting [23]) and in the assay with HLA-B*40:01 (setting [23]) was at least 20 µM each time. The Kd with HLA-B*58:01 (setting [23]) is at least 20 µM; with HLA-A*24:03, at least 20 µM; in the assay with HLA-B*57:01 [11] (setting [23]), at least 20 µM; with HLA-A*11:01 [12] (setting [23]), at least 20 µM; with HLA-A*31:01 (setting [23]) it was at least 20 µM; with HLA-B*08:01 (setting [23]) it was 0.816 µM. Besides, the Kd with HLA-B*18:01 [13] (setting [23]), in the assay with HLA-A*01:01 (setting [23]), with HLA-B*46:01 [14] (setting [23]), with HLA-B*44:02 (setting [23]), with HLA-B*48:01 (setting [23]) and with HLA-A*02:01 [15] (setting [23]) was at least 20 µM each time. In the assay with HLA-A*02:12, the Kd was at least 20 µM.

In the assay with HLA-A*03:01 [1] (source organism: Escherichia coli 536), VLGYSRMLY came in with a Kd of 0.0903 µM.

Consider YITDYSNDI, for which the Kd in the assay with HLA-A*69:01 [16], with HLA-B*15:01 [2] (source organism: Homo sapiens), with HLA-B*57:01 [3] (source organism: Homo sapiens), with HLA-B*27:03 (source organism: Homo sapiens), with HLA-B*18:01 [4] (source organism: Homo sapiens) and in the assay with HLA-B*46:01 [5] (source organism: Homo sapiens) was at least 20 µM throughout. For the same sequence, the Kd was at least 20 µM with HLA-B*39:01 (source organism: Homo sapiens); at least 20 µM with HLA-B*15:17 (source organism: Homo sapiens); at least 20 µM in the assay with HLA-A*26:01 (source organism: Homo sapiens); at least 20 µM in the assay with HLA-B*51:01 (source organism: Homo sapiens); 0.0075 µM with HLA-A*02:01 [15] (source organism: Homo sapiens).
